Target: MCMV nuclear capsids (murine cytomegalovirus (MCMV) | murine cytomegalovirus (MCMV), Smith strain)
Test: immunoelectron microscopy of purified nuclear capsids; nuclear capsids purified on a sucrose gradient from infected cells, adsorbed on grids, rabbit GFP antiserum and protein A-gold (10 nm); gold beads per capsid counted; WT capsids as background

S-GFP-SCP fusion protein expressed ectopically from recombinant MCMV
gold beads per capsid (anti-GFP immunogold) (gold beads per capsid): 15

Source: PMC3394720
